B1: Peptide B (human CaMKII-α 290-309, unphosphorylated, unlabeled) [human] / human CaMKII-α hub domain [human] (parent complex)
chain 1: LKKFNARRKLKGAILTTMLA
chain 2: VRKQEIIKVTEQLIEAISNGDFESYTKMCDPGMTAFEPEALGNLVEGLDFHRFYFENLWSRNSKPVHTTILNPHIHLMGDESACIAYIRITQYLDAGGIPRTAQSEETRVWHRRDGKWQIVHFHRSGAPSV

Variants of: B1
Assay: fluorescence polarisation competition; point read at 500 µM unlabeled peptide; 2 nM labeled peptide A bound to 30 µM hub; lower polarization = more labeled peptide competed off; parent: 150; read off a plot

Point of comparison: chain 1 LKKFNAERKLKGAILTTMLA, response ~160. Against it:
- chain 1 LKEFNAERKLEGAILTTMLA — higher, ~210
- chain 1 LKKFNARRKLEGAILTTMLA — higher, ~180

From article PMC4859805, “Molecular mechanism of activation-triggered subunit exchange in Ca^2+/calmodulin-dependent protein kinase II” (eLife, 2016)
